Patent publication US20130115677

Columns and labels:
Test in all cases: cleavage_in_vitro
[1] = system: T1, NcoI (Nocardia corallina); settings: NEB4, 37 C, Mg2+
T1 sequence: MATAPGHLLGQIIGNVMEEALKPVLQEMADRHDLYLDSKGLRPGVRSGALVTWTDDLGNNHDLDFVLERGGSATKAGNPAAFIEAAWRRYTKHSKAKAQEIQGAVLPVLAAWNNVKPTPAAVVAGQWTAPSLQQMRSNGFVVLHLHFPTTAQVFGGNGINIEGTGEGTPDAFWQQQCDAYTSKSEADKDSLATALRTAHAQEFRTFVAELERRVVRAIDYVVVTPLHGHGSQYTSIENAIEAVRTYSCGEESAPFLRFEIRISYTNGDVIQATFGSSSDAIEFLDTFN

[2] = biological target: T2, PstI-HF D91A (Providencia stuartii 164) (UniProt P00640); settings: NEB4, 37 C, Mg2+
T2 sequence: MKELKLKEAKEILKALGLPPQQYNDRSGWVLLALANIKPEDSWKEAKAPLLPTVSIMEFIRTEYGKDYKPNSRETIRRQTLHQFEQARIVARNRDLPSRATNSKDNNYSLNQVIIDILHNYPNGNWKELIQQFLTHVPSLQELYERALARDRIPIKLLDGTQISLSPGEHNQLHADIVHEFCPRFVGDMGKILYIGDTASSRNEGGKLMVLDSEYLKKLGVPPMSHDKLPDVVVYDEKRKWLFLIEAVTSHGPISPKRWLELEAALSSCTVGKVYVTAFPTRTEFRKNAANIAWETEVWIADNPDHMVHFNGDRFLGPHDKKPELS

[3] = biological target: EcoRI-HF K62E (Escherichia coli RY13) (UniProt P00642); settings: NEB4, 37 C, Mg2+
[4] = biological target: T3, HindIII (Haemophilus influenzae Rd) (UniProt P43870); settings: NEB4, 37 C, Mg2+
T3 sequence: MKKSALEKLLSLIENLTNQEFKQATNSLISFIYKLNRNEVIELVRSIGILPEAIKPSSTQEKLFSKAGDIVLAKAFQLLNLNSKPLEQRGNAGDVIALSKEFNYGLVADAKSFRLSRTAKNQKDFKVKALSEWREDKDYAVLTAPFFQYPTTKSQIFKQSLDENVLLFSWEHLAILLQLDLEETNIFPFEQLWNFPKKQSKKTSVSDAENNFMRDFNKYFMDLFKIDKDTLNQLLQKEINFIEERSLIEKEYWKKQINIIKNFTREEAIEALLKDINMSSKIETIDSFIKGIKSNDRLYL

BstXI-HF N65A = settings: NEB4, 55 C, Mg2+

Substance lambda DNA has an activity (fidelity index) [1] of 32, an activity (fidelity index) [2] of 4000 and an activity (fidelity index) [3] of 16000. For the same substance, the activity (fidelity index) [4] was 32 and the activity (fidelity index) (BstXI-HF N65A) was > 250.
